Laboratory results reported in PMC12726990, “Sialylated Clusterin Binds CD33 to Regulate Microglial Functions in Alzheimer's Disease” (Alzheimer's & Dementia, 2025).

Target: T1, Sialylated clusterin (CLU) (UniProt P10909 23-449, sialylated)
T1 construct: Clusterin (CLU), soluble sialylated protein
Test: BLI + MST; quantitative binding assay; which of the two methods gave the value, and who was immobilised or labelled, is not told
Conditions: both partners purified

T1 sequence (P10909 23-449): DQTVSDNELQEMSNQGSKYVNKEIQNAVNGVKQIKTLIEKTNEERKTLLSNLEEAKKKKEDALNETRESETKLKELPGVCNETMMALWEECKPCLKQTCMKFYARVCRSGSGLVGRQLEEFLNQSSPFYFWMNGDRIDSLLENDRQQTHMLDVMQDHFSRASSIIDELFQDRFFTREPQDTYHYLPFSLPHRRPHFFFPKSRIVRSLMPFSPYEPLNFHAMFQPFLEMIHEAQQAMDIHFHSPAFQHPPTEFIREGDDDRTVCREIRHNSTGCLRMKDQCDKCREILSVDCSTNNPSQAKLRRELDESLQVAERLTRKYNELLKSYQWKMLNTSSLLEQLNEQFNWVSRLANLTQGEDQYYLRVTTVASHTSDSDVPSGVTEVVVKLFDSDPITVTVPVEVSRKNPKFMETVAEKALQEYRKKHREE

Kd: 0.0289 ± 0.0103 µM
B1: sialic-acid binding immunoglobulin-like lectin 3 receptor (Siglec-3 / CD33) (receptor)
chain: DPNFWLQVQESVTVQEGLCVLVPCTFFHPIPYYDKNSPVHGYWFREGAIISRDSPVATNKLDQEVQEETQGRFRLLGDPSRNNCSLSIVDARRRDNGSYFFRMERGSTKYSYKSPQLSVHVTDLTHRPKILIPGTLEPGHSKNLTCSVSWACEQGTPPIFSWLSAAPTSLGPRTTHSSVLIITPRPQDHGTNLTCQVKFAGAGVTTERTIQLNVTYVPQNPTTGIFPGDGSGKQETRAGVVH
